Test results: patent publication US11219221B2 (FarmHannong Co., Ltd., priority 2017, dated 2022)

Tested on: CyPPO17
Assay: Herbicide tolerance test of CyPPO17 wild type and variants in PPO-deficient E. coli BT3(ΔPPO)
Assay type: cell-based, Thermosynechococcus sp. NK55a
Details: BT3(ΔPPO) transformants, two or more amino acid mutations, dark; for Herbicide tolerance, tiafenacil: 37° C., 16 to 20 hours, relative to wild type at highest concentration (50, 200 μM); for Herbicide tolerance, flumioxazin: relative to wild type at highest concentration (100, 200 μM); for Herbicide tolerance, sulfentrazone: relative to wild type at highest concentration (200, 400 μM)
Protocol: The mutated CyPPO gene obtained from the Example 2 was transformed to BT3 (ΔPPO) strain which is deficient of PPO activity and cultured in LB media with PPO-inhibiting herbicide, thereby examining whether growth of transformed BT3 was not inhibited.
BT3 competent cells were transformed with the pET303-CyPPO16 and pET303-CyPPO17 plasmids and those with a mutation(s) constructed in Example 2 respectively, and were cultured in LB agar media containing carbenicillin (Gold Biotechnology, Co., Ltd.).
Single colony of E. coli transformed with each CyPPO gene was cultured in 3 ml of LB broth containing carbenicillin overnight, and then was subcultured until absorbance (0D600) reached 0.5 to 1. Then, it was diluted with LB broth to OD600=0.5. Again, the diluted solution was serially diluted 4 times by a factor of one tenth.
The LB agar media (LB 25 g/l, Bacto agar 15 g/l) containing carbenicillin (100 μg/ml) and 0 to 4,000 μM of various herbicides dissolved in DMSO was prepared. Next, 10 μl of each diluted solution was dropped on the plate and cultured at 37° C. under light (Tables 7 and 9, FIGS. 2 to 6, and 18 to 22) or dark (Tables 8 and 10, FIGS. 7 to 17, and 23 to 33) for 16 to 20 hours. Then, extent of tolerance was evaluated.
The extent of herbicide tolerance of the mutated genes was evaluated by comparing that of mutated genes with that of wild type. The relative tolerance was represented with “+” as a factor of 10 times. Evaluation result was listed in Tables 7 to10 and FIGS. 2 to 33:
In Tables 7 to 10, tolerance level was presented as of tolerance of wild type and of variants equivalent to that of wild type, and was done as ‘+’ per each 10 fold resistance until ‘+++++’ as maximal resistance. (Tolerance level was evaluated by relative growth level of variants to that of wild type in the media containing highest concentration of herbicide; ‘+’=1-9 fold higher tolerance, ‘++’=10-99 fold higher tolerance, ‘+++’=100-999 fold higher tolerance, ‘++++’=1,000-9,999 fold higher tolerance, ‘+++++’=more than 10,000 fold higher tolerance)
The concentrations of herbicides were written above the photographs of tolerance test. A dilution series (0D600=0.5, 0.05, 0.005, 0.0005, 0.00005) was made and spotted on LB agar plates supplemented with herbicides.

Molecule | Herbicide tolerance, tiafenacil | Herbicide tolerance, flumioxazin | Herbicide tolerance, sulfentrazone
V304M + F359I: CyPPO17 variant (protein, Synthetic (Protoporphyrinogen IX oxidase (CyPPO17) of Thermosynechococcus sp. NK55a), CyPPO17 variant) MEVDVAIVGGGLSGLSVAWRLQQSAPQYSGVLLEASDRLGGNITTQGAEGFVWELGPNSFAPTPALLQLIAEVGLHSELIRGDRHLPRYIYWRGELYPLEPTRPLALATSNLLSPWGKVRAALGALGFVPPYLGSGDESVNSFFRRHLGQEVAERLVAPFVSGVYAGDPQQLSAAAAFRRIAQLEKLGGGLIAGALRLRRQQPPKPRPPAEVQMRPGELGSFKEGLAALPRAIAQQLKAPVHLQTPVEAITPEPNGGYLLRSGEQTWQARSVVLATPAYQTAALVAPFQPAIARVLAAIPYPTMACVVLAYPAGLGRSVRPGFGVLIPRGQGIRTLGTIWSSCLFPQRTPAGWQVFTSIIGGATDPDLASLREEAIVQQVQQDLTRLLDLPAAKARLLGMKVWRRAIPQYLVGYPQQWQQVTHALSQTPGLFLCSNYAEGVALGDRVEHGNRTAAAVAAYLSGGQS | +++ (‘+++’=100-999 fold higher tolerance) | +++ (‘+++’=100-999 fold higher tolerance) | ++ (‘++’=10-99 fold higher tolerance)
V164C + A166L + L326T + F359M: CyPPO17 variant (protein, Synthetic (Protoporphyrinogen IX oxidase (CyPPO17) of Thermosynechococcus sp. NK55a), CyPPO17 variant) MEVDVAIVGGGLSGLSVAWRLQQSAPQYSGVLLEASDRLGGNITTQGAEGFVWELGPNSFAPTPALLQLIAEVGLHSELIRGDRHLPRYIYWRGELYPLEPTRPLALATSNLLSPWGKVRAALGALGFVPPYLGSGDESVNSFFRRHLGQEVAERLVAPFVSGCYLGDPQQLSAAAAFRRIAQLEKLGGGLIAGALRLRRQQPPKPRPPAEVQMRPGELGSFKEGLAALPRAIAQQLKAPVHLQTPVEAITPEPNGGYLLRSGEQTWQARSVVLATPAYQTAALVAPFQPAIARVLAAIPYPTVACVVLAYPAGLGRSVRPGFGVTIPRGQGIRTLGTIWSSCLFPQRTPAGWQVFTSMIGGATDPDLASLREEAIVQQVQQDLTRLLDLPAAKARLLGMKVWRRAIPQYLVGYPQQWQQVTHALSQTPGLFLCSNYAEGVALGDRVEHGNRTAAAVAAYLSGGQS | +++++ (‘+++++’=more than 10,000 fold higher tolerance) | +++++ (‘+++++’=more than 10,000 fold higher tolerance) | ++++ (‘++++’=1,000-9,999 fold higher tolerance)
V304M + L326T + F359M: CyPPO17 variant (protein, Synthetic (Protoporphyrinogen IX oxidase (CyPPO17) of Thermosynechococcus sp. NK55a), CyPPO17 variant) MEVDVAIVGGGLSGLSVAWRLQQSAPQYSGVLLEASDRLGGNITTQGAEGFVWELGPNSFAPTPALLQLIAEVGLHSELIRGDRHLPRYIYWRGELYPLEPTRPLALATSNLLSPWGKVRAALGALGFVPPYLGSGDESVNSFFRRHLGQEVAERLVAPFVSGVYAGDPQQLSAAAAFRRIAQLEKLGGGLIAGALRLRRQQPPKPRPPAEVQMRPGELGSFKEGLAALPRAIAQQLKAPVHLQTPVEAITPEPNGGYLLRSGEQTWQARSVVLATPAYQTAALVAPFQPAIARVLAAIPYPTMACVVLAYPAGLGRSVRPGFGVTIPRGQGIRTLGTIWSSCLFPQRTPAGWQVFTSMIGGATDPDLASLREEAIVQQVQQDLTRLLDLPAAKARLLGMKVWRRAIPQYLVGYPQQWQQVTHALSQTPGLFLCSNYAEGVALGDRVEHGNRTAAAVAAYLSGGQS | ++++ (‘++++’=1,000-9,999 fold higher tolerance) | ++++ (‘++++’=1,000-9,999 fold higher tolerance) | +++ (‘+++’=100-999 fold higher tolerance)
